The source of these data is US20220119534A1 (DRAGONFLY THERAPEUTICS, published 2022).

Values joined by “and” are separate entries in the source; they are usually repeats but may differ in a detail not shown here. Equal entries are not always repeated.

Assay [1] concerns the target T1, Human CD16a V158 (FcγRIIIa V158) (human, UniProt P08637 17-208, biotinylated).
T1 construct: Bought recombinant receptor; also called hCD16aV; hFcγRIIIa V158
Description: SPR; after pH 5.0, 40C, 2 wks.

The target in assay [2] is T2, Human CLEC12A-His (recombinant, K244 WT) (human, UniProt Q5QGZ9 65-265).
T2 construct: Made in house (Dragonfly Tx); also called hCLEC12A; hCLEC12A-His; not shown: His tag
T2 sequence: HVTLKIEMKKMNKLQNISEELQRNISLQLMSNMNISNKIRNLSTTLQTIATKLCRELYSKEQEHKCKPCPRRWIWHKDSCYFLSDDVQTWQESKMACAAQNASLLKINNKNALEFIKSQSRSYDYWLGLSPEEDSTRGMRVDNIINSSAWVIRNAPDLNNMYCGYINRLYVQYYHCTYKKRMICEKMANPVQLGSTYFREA
Description: SPR, untreated CLEC12A, two-state fit (kd1).

Assay [3] has as its target T3, Human CD16b (FcγRIIIb) (human, UniProt O75015 17-200, limits assumed, biotinylated).
T3 construct: Bought recombinant receptor; also called hFcγRIIIb; CD16b (FcγR3b)
The assay is described as follows: SPR 25C, biotinylated CD16b captured.

As usually defined, the Kd is the concentration at which binding is half-saturated. The term koff denotes the rate constant with which the complex falls apart. Broadly, the kon is the second-order rate constant of association. A lower kon goes with slow association.

T3 sequence (O75015 17-200 limits assumed): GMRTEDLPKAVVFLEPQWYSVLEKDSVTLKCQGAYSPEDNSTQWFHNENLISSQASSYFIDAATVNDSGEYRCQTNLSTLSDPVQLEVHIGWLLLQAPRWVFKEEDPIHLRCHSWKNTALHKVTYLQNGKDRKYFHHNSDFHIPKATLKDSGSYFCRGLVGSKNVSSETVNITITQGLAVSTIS
T1 sequence (P08637 17-208 F176V limits assumed): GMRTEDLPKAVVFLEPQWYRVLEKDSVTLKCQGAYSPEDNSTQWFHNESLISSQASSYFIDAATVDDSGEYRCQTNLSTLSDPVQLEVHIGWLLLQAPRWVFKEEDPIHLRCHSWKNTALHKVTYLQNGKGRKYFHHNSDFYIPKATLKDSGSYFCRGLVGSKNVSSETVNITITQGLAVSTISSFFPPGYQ

B1: AB0089 TriNKET (bispecific antibody, human IgG1, kappa)
chain: QLQLQESGPGLVKPSETLSLTCTVSGFSLTNYGLHWIRQPPGKCLEWIGVIWVGGATDYNPSLKSRVTISVDTSKNQFSLKLSSVQAADTAVYYCAKGDYGDTLDYWGQGTLVTVSSGGGGSGGGGSGGGGSGGGGSDIQMTQSPSSLSASVGDRVTITCHASQNINFWLSWYQQKPGKAPKLLIYEASNLHTGVPSRFSGSGSGTDFTLTISSLQPEDFATYYCQQSHSYPLTFGCGTKLEIKGSDKTHTCPPCPAPELLGGPSVFLFPPKPKDTLMISRTPEVTCVVVDVSHEDPEVKFNWYVDGVEVHNAKTKPREEQYNSTYRVVSVLTVLHQDWLNGKEYKCKVSNKALPAPIEKTISKAKGQPREPRVYTLPPCRDELTKNQVSLTCLVKGFYPSDIAVEWESNGQPENNYKTTPPVLVSDGSFTLYSKLTVDKSRWQQGNVFSCSVMHEALHNHYTQKSLSLSPG
heavy: EVQLVESGGGLVKPGGSLRLSCAASGFTFSSYSMNWVRQAPGKGLEWVSSISSSSSYIYYADSVKGRFTISRDNAKNSLYLQMNSLRAEDTAVYYCARGAPIGAAAGWFDPWGQGTLVTVSSASTKGPSVFPLAPSSKSTSGGTAALGCLVKDYFPEPVTVSWNSGALTSGVHTFPAVLQSSGLYSLSSVVTVPSSSLGTQTYICNVNHKPSNTKVDKKVEPKSCDKTHTCPPCPAPELLGGPSVFLFPPKPKDTLMISRTPEVTCVVVDVSHEDPEVKFNWYVDGVEVHNAKTKPREEQYNSTYRVVSVLTVLHQDWLNGKEYKCKVSNKALPAPIEKTISKAKGQPREPQVCTLPPSRDELTENQVSLTCLVKGFYPSDIAVEWESNGQPENNYKTTPPVLDSDGSFFLYSWLTVDKSRWQQGNVFSCSVMHEALHNHYTQKSLSLSPG
light: DIQMTQSPSSVSASVGDRVTITCRASQGISSWLAWYQQKPGKAPKLLIYAASSLQSGVPSRFSGSGSGTDFTLTISSLQPEDFATYYCQQGVSFPRTFGGGTKVEIKRTVAAPSVFIFPPSDEQLKSGTASVVCLLNNFYPREAKVQWKVDNALQSGNSQESVTEQDSKDSTYSLSSTLTLSKADYEKHKVYACEVTHQGLSSPVTKSFNRGEC
notes: F3' format heterodimer of three chains; human IgG1 Fc with EW-RVT and Y349C/S354C mutations; also called AB0089 Lot AB0089-002; CLEC12A TriNKET AB0089
Turning to B1, the Kd in assay [1] was 0.383 µM; in assay [3] it was 10.3 µM and 8.8 µM and 7.4 µM. The off-rate (koff) in assay [1] amounted to 0.0289 s⁻¹; in assay [2] it was 0.0398 s⁻¹. The kon in assay [1] came to 75400 M⁻¹ s⁻¹.
